Laboratory results reported in paper doi:10.1101/2024.05.31.596772, “CAMSAP3 Forms Dimers via its α-helix Domain that Directly Stabilize Non-centrosomal Microtubule Minus Ends” (bioRxiv, 2024).

B1: GFP-CAMSAP3 (natural protein, UniProt Q80VC9 1-1252, looked up)
chain: MVEAAPAGSGPLRRTFLVPEIKSLDQYDFSRAKAAASLAWVLRAAFGGAEHVPPELWEPFYTDQYAQEHVKPPVTRLLLSAELYCRAWRQALPQLEPSPSPSALLALLARRGTVPSLPEHPVREADLKHQPILMGAHLAVIDALMVAFSFEWTKTLPGPLALSSLEHKLLFWVDTTVRRLQEKTEQEAAQRASPAAPLDGASPAQPSIRYRKDRAIARRAPCFPNVTTLQDLASGAALAATIHCYCPQLLRLEEVCLKDPMSVADSLYNLQLVQDFCASHLPRGCPLSLEDLLYVPPPLKVNLVVLLAEMYMCFEVLKPDFVQAKDLPDGHAVSPRNTETVPSQNNSGSSSPVFNFRHPLLSPGGPQSPLRGSTGSLKSSPSMSHMEALGKAWNRQLSRPLSQAVSFSTPFGLDSDVDVVMGDPVLLRSVSSDSLGPPRPVSTSSRNSAQPAPESGDLPTIEEALQIIHSAEPRLLPDGAADGSFYLHSPEGLSKPPLSPYPPEGASKPLSDRLNKAPIYISHPENPSKSSPCSTGEILKPPPPSEGSPKAVASSPAANNSEVKMTSFAERKKQLVKAEAESGLGSPTSTPVAPEALSSEMSELGARLEEKRRAIEAQKRRIEAIFAKHRQRLGKSAFLQVQPREAAGEAEEEAELGSVPGGERPAGEGQGEPSLRHKSVTFSPDLGPVPPEGLGDYNRAVSKLSAALSSLQRDMQRLTDQQQRLLAPPEAPGPAPPPAAWVIPGPATGPKAASPSPARRAPAARRSPGPGPSPTPRSPKHARPAELKLAPLTRVLTPPHDVDSLPHLRKFSPSQVPVQTRSSILLSEGTPPEEPTTKPALIEIPLASLGEPAADEEGDGSPPGAEDSLEEEASSEGEPRSGLGFFYKDEDKPEDEMAQKRASLLERQQRRVEEARRRKQWQEAEKEQKREEAARLAQEAPGLAFTTPVVASAAPVATLAPTTRAMAPAEEEVGPRRGDFTRLEYERRAQLKLMDDLDKVLRPRASGTGGPGRGGRRATRPRSGCCDDSALARSPARGLLGSRLSKVYSQSTLSLSTVANEAPNNLGVKRPTSRAPSPSGLMSPSRLPGSRERDWENGSNASSPASVPEYTGPRLYKEPSAKSNKFIIHNALSHCCLAGKVNEPQKNRILEEIEKSKANHFLILFRDSSCQFRALYTLSGETEELSRLAGYGPRTVTPAMVEGIYKYNSDRKRFTQIPAKTMSMSVDAFTIQGHLWQSKKPTTPKKGGGTPK
notes: CAMSAP3 (Nezha), full length; also called Nezha; CAMSAP3 full-length; source: Sf9 cells, purified
B2: GFP-CAMSAP3 944F (domain or fragment, UniProt Q80VC9 944-1252, looked up)
chain: AFTTPVVASAAPVATLAPTTRAMAPAEEEVGPRRGDFTRLEYERRAQLKLMDDLDKVLRPRASGTGGPGRGGRRATRPRSGCCDDSALARSPARGLLGSRLSKVYSQSTLSLSTVANEAPNNLGVKRPTSRAPSPSGLMSPSRLPGSRERDWENGSNASSPASVPEYTGPRLYKEPSAKSNKFIIHNALSHCCLAGKVNEPQKNRILEEIEKSKANHFLILFRDSSCQFRALYTLSGETEELSRLAGYGPRTVTPAMVEGIYKYNSDRKRFTQIPAKTMSMSVDAFTIQGHLWQSKKPTTPKKGGGTPK
notes: source: Sf9 cells, purified

Molecular target: the molecule itself
Experiment: SEC-MALS; static light detection of the purified GFP-tagged protein; dimer from the mass of the primary peak

Row | Protein | stoichiometry N
1 | B1 | 2
2 | B2 | 2
